Assay results taken from patent US20180346592A1.
Residue numbers refer to the chain shown, from its start.

B1: clone GN328 (scFv, V domains shown)
VH: EVQLVESGGGLVQPGGSLRVSCAASGFTFSTAWMDWVRQAPGKGLEWVANINPDGSEKHYVDSVKGRFTVSRDNAKNSVYLHMNNLRAEDTAVYYCSKALDYWGQGTTVTVSS
VL: DIQMTQSPSTLSASVGDRVTITCRASQNINTWLAWYQQKPGKAPEVLIYEASSLESGVPPRFSGSGSGTEFTLTISSLQPDDSATYYCQQYNTYSPTFGQGTKLEIKR
B2: clone GN414 (scFv, V domains shown)
VH: QVQLVQSGAEVKKPGASVKVSCKASGYTFSTYGITWVRQAPGQGLEWMGRITPNNGVTDYAQKFQGRVTMTRDTSISTAYMELSSLRSDDSAVYYCAREIGSSSWKLLDPWGQGTMVTVSS
VL: QAVLTQPSSVSVSPGQTASITCTGNSNNVGYEGAAWVQQYQGHPPKLLSDRNHNRPSGISERFSASRSGNTASLTITGLQSEDEADYYCSAWDSSLSEWVSGGGTKLTVLG
B3: clone GX247 (scFv, V domains shown)
VH: QVQLVQSGAEVKKPGASVKVSCKASGYTFTSYYMHWVRQAPGQGLEWMGIINPSGGSTSYAQKFQGRVTMTRDTSTSTVYMELSSLRSEDTAVYYCARTRKGSGYSYGYGMDVWGQGTTVTVSS
VL: SYELTQPPSVSVSPGQTASITCSGDKLGNKYVSWYQQKPGQSPVLVIYQDNKRPSGIPERFSGSNSGNTATLTISGTQAMDEAGYYCQTWDSSVVFGGGTKLTVLG
B4: clone GX184 (scFv, V domains shown)
VH: QLQLQESGPGLVKPSETLSLTCAVSGGSISSSNNYWGWIRQPPGKGLEWIGSIFYSGSTYYNPSLKSRVTISVDTSKNQFSLKLSSVTAADTAVYYCARLPTGTPGFYFDYWGQGTLVTVSS
VL: SYELTQPPSVSKGLRQTATLTCTGNSNNVGNQGAAWLQQHQGHPPKLLSYRNNNRPSGISERFSASRSGNTASLTITGLQPEDEADYYCSAWDSSLSAWVFGGGTKLTVLG
B5: clone GX263 (scFv, V domains shown)
VH: EVQLVESGGGLVKPGGSLRLSCAASGFTFSSYSMNWVRQAPGKGLEWVSSISSSSSYIYYADSVKGRFTISRDNAKNSLYLQMNSLRAEDTAVYYCARVTPYYYYGMDVWGQGTTVTVSS
VL: QSVVTQPPSVSAAPGQKVTISCSGSSSNIGNNYVSWYQQLPGTAPKLLIYDSNKRPPGIPDRFSGSKSGTSATLGITGLQTGDEADYYCGAWDSSLSAVVFGGGTKLTVLG
B6: clone GS006 (scFv, V domains shown)
VH: EVQLLESGGGLVQPGGSLRLSCAASGFTFSGYSMSWVRQAPGKGLEWVSAISPGGGSKYYADSVRGRFTVSRDNSKNTLYLQMNSLRAEDTAVYYCARYRVQKSAKNVYSSNGMDVWGQGTLVTVSS
VL: QSVLTQPPPASGTPGQRVTISCSGSSSNIGNNAVNWYQQLPGTAPKLLIYYDSNRPSGVPDRFSGSKSGTSASLAISGLRSEDEADYYCGAWDSSLSAYVFGGGTKLTVLG
B7: clone GS010 (scFv, V domains shown)
VH: EVQLLESGGGLVQPGGSLRLSCAASGFTFSNYSMSWVRQAPGKGLEWVSVISPSSGSIYYADSVKGRFTISRDNSKNTLYLQMNSLRAEDTAVYYCARYRVRQLKHTRSYADAMDVWGQGTLVTVSS
VL: QSVLTQPPSASGAPGQRVTISCSGSSSNIGSNAVSWYQQLPGTAPKLLIYANSHRPSGVPDRFSGSKSGTSASLAISGLRSEDETDYYCASWDSSLSGYVFGGGTKLTVLG
B8: clone GS004 (scFv, V domains shown)
VH: EVQLLESGGGLVQPGGSLRLSCAVSGFTFSNYSMSWVRQAPGKGLEWVSAISPGSSNKYYADSVKGRFTISRDNSKNTLYLQMNSLRAEDTAVYYCARYRVWAHSASSSYSNAMDVWGQGTLVTVSS
VL: B6 VL with P9S, A33D, N35S, Y51S, N54Q, A91S, S94D, S97N, A98G
B9: clone GS014 (scFv, V domains shown)
VH: EVQLLESGGGLVQPGGSLRLSCAASGFTFSNYAMSWVRQAPGKGLEWVSVISPNSGSNTYYADSVKGRFTISRDNSKNTLYLQMNSLRAEDTAVYYCARPRILRRRVDHSYSYAMDVWGQGTLVTVSS
VL: B7 VL with A13T, S23T, S31N, A33Y, A51S, T85A, A90G, S91T, S94Y, F101L
B10: clone GS015 (scFv, V domains shown)
VH: EVQLLESGGGLAQPGGSLRLSCAASGFTFSDYSMSWVRQAPGKGLEWVSAISPDGGSKYYADSVKGRFTISRDNSKNTLYLQMNSLRAEDTAVYYCARFRVIKLRAGWYSANGMDVWGQGTLVTVSS
VL: B6 VL with P9S, A33D, N35S, D52N, N54K, S94D, S97N, A98G
B11: clone GS002 (scFv, V domains shown)
VH: EVQLLESGGGLVQPGGSLRLSCAASGFTFSGYSMSWVRQAPGKGLEWVSSISPGGSSTYYADSVKGRFTISRDNSKNTLYLQMSSLRAEDTAVYYCARYRVWHMTTGDYYSNAMDVWGQGTLVTVSS
VL: QSVLTQPPSASGTPGQRVTISCTGSSSNIGSNAVSWYQQLPGTAPKLLIYDDNKRPSGVLDRFSGSKSGTSASLAISGLRSEDEADYYCGTWDDSLSGYVFGGGTKLTVLG

Target: GPC3 on the surface of hepatic cancer cell lines (SK-Hep1-GPC3 transfectant, HepG2, Huh7, Hep3B, SNU398) (human) (UniProt P51654)
Experiment: FACS, SK-Hep1-GPC3 #9 cells, 1 ug antibody; lower left panel

Mean, FL2-H | Binder
4.17 | B1
3.75 | B2
6.07 | B3
3.99 | B4
3.71 | B5

Target: GPC3 on the surface of hepatic cancer cell lines (SK-Hep1-GPC3 transfectant, HepG2, Huh7, Hep3B, SNU398) (human) (UniProt P51654)
Experiment: FACS, SK-Hep1-GPC3 #9 cells, 1 ug antibody; upper right panel

Mean, FL2-H | Binder
3.65 | B6
4.53 | B7
4.11 | B8
4.39 | B9
5.34 | B10
4.17 | B11

Target: GPC3 on the surface of hepatic cancer cell lines (SK-Hep1-GPC3 transfectant, HepG2, Huh7, Hep3B, SNU398) (human) (UniProt P51654)
Experiment: FACS, HepG2 cells, 1 ug antibody; upper right panel (Synthetic library)

Mean, FL2-H | Binder
3.41 | B6
4.72 | B7
4.38 | B8
5.66 | B9
3.64 | B10
4.71 | B11

Target: GPC3 on the surface of hepatic cancer cell lines (SK-Hep1-GPC3 transfectant, HepG2, Huh7, Hep3B, SNU398) (human) (UniProt P51654)
Experiment: FACS, HepG2 cells, 1 ug antibody; lower left panel (Human naive library)

Mean, FL2-H | Binder
4.24 | B1
6.9 | B2
5.53 | B3
5.39 | B4
6.06 | B5
